B1: Emerin (Homo sapiens), P50402 (parent)
chain: MDNYADLSDTELTTLLRRYNIPHGPVVGSTRRLYEKKIFEYETQRRRLSPPSSSAASSYSFSDLNSTRGDADMYDLPKKEDALLYQSKGYNDDYYEESYFTTRTYGEPESAGPSRAVRQSVTSFPDADAFHHQVHDDDLLSSSEEECKDRERPMYGRDSAYQSITHYRPVSASRSSLDLSYYPTSSSTSFMSSSSSSSSWLTRRAIRPENRAPGAGLGQDRQVPLWGQLLLFLVFVIVLFFIYHFMQAEEGNPF

In the test the parent is B1. The note with it: with lmna_human LMNA.
Regarding Q133H, the “effect of a mutation on the interaction” value is given as “with no effect”.
